In paper PMC10397247:
Like-named read-outs stand apart in the source and are kept apart here.

B1: 4H1401-AA (peptide)
chain: DENAALEAKIAALKAKNAALKAEIAALEG
B2: 4H2165-AA (peptide)
chain: DKIAALEAEIAALKAKNAALEAKIAALEG
B3: 4H1845-AA (peptide)
chain: DENAALKAKIAALEAKNAALEAKIAALEG
B4: 4H1153-AA (peptide)
chain: DENAALEAENAALEAEIAALEAEIAALEG
B5: 4H1257-AA (peptide)
chain: DENAALEAENAALKAKIAALKAEIAALEG
B6: 4H1064-AA (peptide)
chain: DENAALEAEIAALEAKIAALEAKNAALKG
B7: 4H3606-AA (peptide)
chain: DKNAALKAEIAALEAENAALEAKIAALKG

Assays:
Assay in all cases: two-hybrid library CCmax;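 further: natural log of median RNA to DNA barcode read ratio; higher means stronger binding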
P9-AA = target: T1, P9-AA; settings: mean of both orientations
T1 chain: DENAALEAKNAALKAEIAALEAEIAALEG

4H2505-AA = target: T2, 4H2505-AA; settings: mean of both orientations
T2 chain: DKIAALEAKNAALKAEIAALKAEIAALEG

4H3427-AA = target: T3, 4H3427-AA; settings: mean of both orientations
T3 chain: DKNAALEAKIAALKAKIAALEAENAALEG

4H678-AA = target: T4, 4H678-AA; settings: mean of both orientations
T4 chain: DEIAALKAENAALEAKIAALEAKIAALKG

4H2198-AA = target: T5, 4H2198-AA; settings: mean of both orientations
T5 chain: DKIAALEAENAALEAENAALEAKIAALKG

4H3413-AA = target: T6, 4H3413-AA; settings: mean of both orientations
T6 chain: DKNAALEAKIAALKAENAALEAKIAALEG

4H48-AA = target: T7, 4H48-AA; settings: mean of both orientations
T7 chain: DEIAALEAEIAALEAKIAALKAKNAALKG

4H605-AA = target: T8, 4H605-AA; settings: mean of both orientations
T8 chain: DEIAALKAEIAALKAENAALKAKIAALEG

4H2466-AA = target: T9, 4H2466-AA; settings: mean of both orientations
T9 chain: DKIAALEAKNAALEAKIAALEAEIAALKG

4H2617-AA = target: T10, 4H2617-AA; settings: mean of both orientations
T10 chain: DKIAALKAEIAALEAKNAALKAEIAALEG

4H32-AA = target: T11, 4H32-AA; settings: mean of both orientations
T11 chain: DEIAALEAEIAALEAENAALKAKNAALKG

4H993-AA = target: T12, 4H993-AA; settings: mean of both orientations
T12 chain: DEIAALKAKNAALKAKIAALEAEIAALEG

4H2642-AA = target: T13, 4H2642-AA; settings: mean of both orientations
T13 chain: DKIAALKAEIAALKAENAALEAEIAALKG

4H2393-AA = target: T14, 4H2393-AA; settings: mean of both orientations
T14 chain: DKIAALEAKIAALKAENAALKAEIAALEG

4H3056-AA = target: T15, 4H3056-AA; settings: mean of both orientations
T15 chain: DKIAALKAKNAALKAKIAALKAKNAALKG

4H2165-AA = target: T16, 4H2165-AA
T16 chain: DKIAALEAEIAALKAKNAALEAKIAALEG

4H566-AA = target: T17, 4H566-AA; settings: mean of both orientations
T17 chain: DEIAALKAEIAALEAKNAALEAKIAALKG

4H2944-AA = target: T18, 4H2944-AA; settings: mean of both orientations
T18 chain: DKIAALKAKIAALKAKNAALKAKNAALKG

4H2729-AA = target: T19, 4H2729-AA; settings: mean of both orientations
T19 chain: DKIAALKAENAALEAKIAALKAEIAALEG

4H1874-AA = target: T20, 4H1874-AA; settings: mean of both orientations
T20 chain: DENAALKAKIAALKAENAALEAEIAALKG

4H906-AA = target: T21, 4H906-AA; settings: mean of both orientations
T21 chain: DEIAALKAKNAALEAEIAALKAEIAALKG

4H56-AA = target: T22, 4H56-AA; settings: mean of both orientations
T22 chain: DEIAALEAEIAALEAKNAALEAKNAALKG

4H3073-AA = target: T23, 4H3073-AA
T23 chain: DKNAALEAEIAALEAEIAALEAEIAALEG

4H3015-AA = target: T24, 4H3015-AA; settings: mean of both orientations
T24 chain: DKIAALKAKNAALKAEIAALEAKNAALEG

4H406-AA = target: T25, 4H406-AA; settings: mean of both orientations
T25 chain: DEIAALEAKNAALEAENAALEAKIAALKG

4H2931-AA = target: T26, 4H2931-AA; settings: mean of both orientations
T26 chain: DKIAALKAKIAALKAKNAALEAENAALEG

4H3438-AA = target: T27, 4H3438-AA; settings: mean of both orientations
T27 chain: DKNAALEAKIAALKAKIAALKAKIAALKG

4H347-AA = target: T28, 4H347-AA; settings: mean of both orientations
T28 chain: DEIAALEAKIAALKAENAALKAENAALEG

4H1351-AA = target: T29, 4H1351-AA; settings: mean of both orientations
T29 chain: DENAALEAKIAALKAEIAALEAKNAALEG

4H446-AA = target: T30, 4H446-AA; settings: mean of both orientations
T30 chain: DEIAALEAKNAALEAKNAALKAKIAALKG

4H380-AA = target: T31, 4H380-AA; settings: mean of both orientations
T31 chain: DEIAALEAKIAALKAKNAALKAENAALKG

4H2621-AA = target: T32, 4H2621-AA; settings: mean of both orientations
T32 chain: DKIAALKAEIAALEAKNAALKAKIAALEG

4H3939-AA = target: T33, 4H3939-AA; settings: mean of both orientations
T33 chain: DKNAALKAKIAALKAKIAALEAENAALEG

4H464-AA = target: T34, 4H464-AA
T34 chain: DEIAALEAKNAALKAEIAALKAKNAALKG

4H63-AA = target: T35, 4H63-AA; settings: mean of both orientations
T35 chain: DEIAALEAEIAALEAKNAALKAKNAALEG

4H2728-AA = target: T36, 4H2728-AA; settings: mean of both orientations
T36 chain: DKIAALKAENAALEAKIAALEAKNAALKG

4H3629-AA = target: T37, 4H3629-AA; settings: mean of both orientations
T37 chain: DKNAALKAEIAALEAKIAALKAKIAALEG

| Binder | interaction score (4H2505-AA) | interaction score (4H3427-AA) | interaction score (4H678-AA) | interaction score (4H2198-AA) | interaction score (4H3413-AA) | interaction score (4H48-AA) | interaction score (4H605-AA) | interaction score (4H2466-AA) | interaction score (4H2617-AA) | interaction score (4H32-AA) | interaction score (4H993-AA) | interaction score (4H2642-AA) | interaction score (4H2393-AA) | interaction score (4H3056-AA) | interaction score (4H566-AA) | interaction score (4H2944-AA) | interaction score (4H2729-AA) | interaction score (4H1874-AA) | interaction score (4H906-AA) | other results |
| --- | --- | --- | --- | --- | --- | --- | --- | --- | --- | --- | --- | --- | --- | --- | --- | --- | --- | --- | --- | --- |
| B1 | -1.67 | -1.52 | -0.21 | 1.85 | 0.857 | 0.338 | -1.38 | -1.54 | -0.502 | 0.0762 | -1.26 | 1.3 | -1.43 | -1.2 | 1.79 | -1.67 | 0.705 | 1.26 | -1.91 | interaction score (P9-AA): -0.999; interaction score (4H2165-AA; mean of both orientations): -1.62 |
| B2 | -1.7 | -1.3 | -0.25 | – | – | -1.31 | -1.15 | -1.49 | 0.892 | – | 0.0167 | 0.223 | -0.392 | – | 0.482 | -1.53 | -1.3 | – | -1.29 | interaction score (4H56-AA): -0.766; interaction score (4H3073-AA): -1.45; interaction score (4H3015-AA): -1.54; interaction score (4H406-AA): -1.15; interaction score (4H2931-AA): -1.58; interaction score (4H3438-AA): -1.07; interaction score (4H2165-AA): 1.41; interaction score (4H347-AA): -1.3 |
| B3 | – | -1.86 | – | -1.5 | -0.729 | – | – | – | – | -1.5 | – | – | – | -1.58 | – | – | – | -1.25 | – | – |
| B4 | 0.301 | -0.781 | -0.487 | -1.56 | -1.92 | -1.38 | -1.75 | -1.53 | -2.01 | -2.43 | 1.59 | -1.43 | -1.3 | 1.46 | -1.5 | -0.0983 | 0.0308 | -1.61 | -1.21 | interaction score (4H1351-AA): -1.51; interaction score (4H2165-AA; mean of both orientations): -1.33 |
| B5 | – | -1.17 | – | – | – | – | – | – | – | – | – | – | – | – | – | – | – | – | – | interaction score (4H446-AA): -1.65; interaction score (4H380-AA): -1.14; interaction score (4H2621-AA): -0.883; interaction score (4H3939-AA): -1.27; interaction score (4H464-AA; mean of both orientations): -1.07; interaction score (4H63-AA): -1.72; interaction score (4H2728-AA): -0.459; interaction score (4H3629-AA): 0.329 |
| B6 | – | – | – | – | – | – | – | – | – | – | – | – | – | – | – | – | – | – | – | interaction score (4H446-AA): -1.26; interaction score (4H380-AA): -0.648; interaction score (4H2621-AA): -1.07; interaction score (4H3939-AA): 2.3; interaction score (4H464-AA): -1.84; interaction score (4H63-AA): -1.29; interaction score (4H2728-AA): -1.43; interaction score (4H3629-AA): 0.654 |
| B7 | – | – | -0.771 | – | – | -0.695 | 0.159 | – | – | – | 1.33 | – | – | – | -0.683 | – | – | – | -1.72 | interaction score (P9-AA): -0.51 |
